Measurements: patent US20240239915A1 (Zymeworks, published 2024)

T1: Recombinant Human Fc gamma RIIB/C (CD32b/c) Protein (R&D Systems), His-tagged (human, UniProt P31994 46-217)
T1 construct: also called human FcγRIIb/c; hFcγRIIb/c
T1 sequence: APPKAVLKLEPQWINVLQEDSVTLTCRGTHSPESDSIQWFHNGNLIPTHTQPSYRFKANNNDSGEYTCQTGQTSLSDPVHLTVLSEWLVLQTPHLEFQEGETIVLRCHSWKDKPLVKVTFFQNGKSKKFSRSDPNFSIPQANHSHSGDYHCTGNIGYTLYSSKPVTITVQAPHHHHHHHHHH

T2: Recombinant Human Fc gamma RIIIB/CD16b Protein (R&D Systems), His-tagged (human, UniProt O75015 20-208)
T2 construct: also called human FcγRIIIb; hFcγRIIIb
T2 chain: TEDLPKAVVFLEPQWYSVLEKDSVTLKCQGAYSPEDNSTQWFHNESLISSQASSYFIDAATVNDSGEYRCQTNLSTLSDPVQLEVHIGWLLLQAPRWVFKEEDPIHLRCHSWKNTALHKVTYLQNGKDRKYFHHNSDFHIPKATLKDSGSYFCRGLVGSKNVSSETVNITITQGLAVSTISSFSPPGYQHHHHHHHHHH

T3: Recombinant Human Fc gamma RIIA/CD32a (R167) Protein (R&D Systems), His-tagged (human, UniProt P12318 36-218)
T3 construct: also called human FcγRIIa; hFcγRIIa
T3 chain: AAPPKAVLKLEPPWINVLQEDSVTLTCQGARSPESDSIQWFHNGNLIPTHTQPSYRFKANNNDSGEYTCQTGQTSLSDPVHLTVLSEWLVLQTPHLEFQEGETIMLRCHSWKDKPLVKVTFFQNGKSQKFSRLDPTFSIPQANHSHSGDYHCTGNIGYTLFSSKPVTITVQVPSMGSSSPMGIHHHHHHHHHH


What was measured:
[1] = molecular target: T4, Recombinant Human Fc gamma RI/CD64 Protein, CF (R&D Systems), His-tagged (human, UniProt P12314 16-288); experiment: SPR (Biacore T200): His-tagged human FcγRI captured on an anti-His antibody chip, antibody as analyte; RU plotted against antibody concentration
T4 construct: also called human FcγRI; hFcγRI

[2] = molecular target: T1, Recombinant Human Fc gamma RIIB/C …; experiment: SPR (Biacore T200); receptor immobilized directly on CM5 chip, antibody as analyte at 4.7 µM
Procedure: (§1) After immobilizing human FcγR as a ligand directly on the sensor chip, various anti-EGFR antibodies as analysts were added to the sensor chip to measure an interaction between the ligand and the analysts by the SPR method.

[3] = molecular target: T2, Recombinant Human Fc gamma RIIIB/CD16b …; experiment: as above
Procedure: as §1

[4] = molecular target: T5, Recombinant Human Fc gamma RIIIA/CD16a protein (R&D Systems), His-tagged (human, UniProt P08637 17-208); experiment: as above
T5 construct: also called human FcγRIIIa; hFcγRIIIa
Procedure: as §1

[5] = molecular target: T4, Recombinant Human Fc gamma RI/CD64 …; experiment: SPR (Biacore T200), RU at 4.7 µM antibody, anti-CD70 antibody vorsetuzumab
Procedure: The FcγRI ligand was captured on a sensor chip on which anti-His antibodies were immobilized. Various anti-EGFR antibodies as analytes were then added to the sensor chip to measure an interaction between the ligand and the analyte by surface plasmon resonance (SPR) method.
Briefly, anti-6×His tag antibodies [AD1.1.10] (Abcam plc, Cambridge, UK) were immobilized on Sensor Chip CM5 (Cytiva, Marlborough, MA) according to the manufacturer's instructions, and then Recombinant Human Fc gamma RI/CD64 Protein (R & D Systems) prepared at 10 μg/mL in HBS-EP+ (GE Healthcare, Chicago, IL) was captured by contacting it with the sensor chip at 10 μL/min for 60 seconds. Then, the anti-EGFR antibody prepared at each of the given concentrations in HBS-EP+ was added to the sensor chip at a flow rate of 30 μL/min for 120 seconds.

[6] = molecular target: T4, Recombinant Human Fc gamma RI/CD64 …; experiment: SPR (Biacore T200); His-tagged receptor captured on anti-His antibody chip, antibody as analyte at 4.7 µM; reference: LALA variant of the same antibody (anti-LPS O11-1111)
Procedure: (§2) The binding activity of an anti-EGFR antibody, into which known effectorless mutations were introduced, to human FcγRI (hFcγRI), was evaluated using Biacore™ T200 (Cytiva, Marlborough, MA). […] The noted mutations were introduced into both CH2 domains of the Fc region. […] The FcγRI ligand was captured on a sensor chip on which anti-His antibodies were immobilized. Various anti-EGFR antibodies as analytes were then added to the sensor chip to measure an interaction between the ligand and the analyte by surface plasmon resonance (SPR) method.
(§3) Briefly, anti-6×His tag antibodies [AD1.1.10] (Abcam plc, Cambridge, UK) were immobilized on Sensor Chip CM5 (Cytiva, Marlborough, MA) according to the manufacturer's instructions, and then Recombinant Human Fc gamma RI/CD64 Protein (R & D Systems) prepared at 10 μg/mL in HBS-EP+ (GE Healthcare, Chicago, IL) was captured by contacting it with the sensor chip at 10 μL/min for 60 seconds.

[7] = molecular target: T3, Recombinant Human Fc gamma RIIA/CD32a …; experiment: SPR (Biacore T200); receptor immobilized directly on CM5 chip, antibody as analyte at 4.7 µM
Procedure: as §1

[8] = molecular target: T4, Recombinant Human Fc gamma RI/CD64 …; experiment: SPR (Biacore T200), RU at 4.7 µM antibody, anti-LPS antibody O11-1111
Procedure: as §2, §3

T4 sequence (P12314 other isoform, or with tags, fused parts or gaps): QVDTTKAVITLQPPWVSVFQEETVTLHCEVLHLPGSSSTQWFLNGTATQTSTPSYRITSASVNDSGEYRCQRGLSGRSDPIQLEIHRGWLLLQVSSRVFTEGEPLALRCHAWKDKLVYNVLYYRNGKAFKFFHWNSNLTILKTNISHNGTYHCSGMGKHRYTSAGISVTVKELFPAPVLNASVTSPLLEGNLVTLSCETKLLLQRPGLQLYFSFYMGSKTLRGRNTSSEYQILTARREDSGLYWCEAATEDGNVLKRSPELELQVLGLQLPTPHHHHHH
T5 sequence (P08637 other isoform, or with tags, fused parts or gaps): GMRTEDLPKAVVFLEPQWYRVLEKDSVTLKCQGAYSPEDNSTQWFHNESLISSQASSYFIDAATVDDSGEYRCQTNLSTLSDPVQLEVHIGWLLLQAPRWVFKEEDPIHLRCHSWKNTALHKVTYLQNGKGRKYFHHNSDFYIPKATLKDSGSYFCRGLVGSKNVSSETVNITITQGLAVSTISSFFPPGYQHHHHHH

Binder	binding result [1]	binding response (RU) [2] [RU]	binding response (RU) [3] [RU]	binding response (RU) [4] [RU]	RU value relative to the LALA variant [5] [fold]	RU value relative to that of the LALA variant [6]	binding response (RU) [7] [RU]	RU value relative to the LALA variant [8] [fold]
LALA-DG variant of the anti-CD70 antibody vorsetuzumab (IgG1) (antibody, name in EU numbering, also called Anti-CD70 Antibody LALA-DG) heavy: QVQLVQSGAEVKKPGASVKVSCKASGYTFTNYGMNWVRQAPGQGLKWMGWINTYTGEPTYADAFKGRVTMTRDTSISTAYMELSRLRSDDTAVYYCARDYGDYGMDYWGQGTTVTVSSASTKGPSVFPLAPSSKSTSGGTAALGCLVKDYFPEPVTVSWNSGALTSGVHTFPAVLQSSGLYSLSSVVTVPSSSLGTQTYICNVNHKPSNTKVDKRVEPKSCDKTHTCPPCPAPEAAGGPSVFLFPPKPKDTLMISRTPEVTCVVVGVSHEDPEVKFNWYVDGVEVHNAKTKPREEQYNSTYRVVSVLTVLHQDWLNGKEYKCKVSNKALPAPIEKTISKAKGQPREPQVYTLPPSREEMTKNQVSLTCLVKGFYPSDIAVEWESNGQPENNYKTTPPVLDSDGSFFLYSKLTVDKSRWQQGNVFSCSVMHEALHNHYTQKSLSLSPGK light: DIVMTQSPDSLAVSLGERATINCRASKSVSTSGYSFMHWYQQKPGQPPKLLIYLASNLESGVPDRFSGSGSGTDFTLTISSLQAEDVAVYYCQHSREVPWTFGQGTKVEIKRTVAAPSVFIFPPSDEQLKSGTASVVCLLNNFYPREAKVQWKVDNALQSGNSQESVTEQDSKDSTYSLSSTLTLSKADYEKHKVYACEVTHQGLSSPVTKSFNRGEC	no binding (tested: 4.7 µM)	1.3	-3.7	-2.1	~0.005			
LALA-DG variant of the anti-LPS antibody O11-1111 (IgG1) (antibody, substitutions in EU numbering; also called Anti-LPS Antibody LALA-DG) heavy: QVQLVQSGAEVKKPGASVKVSCKASGYTFTSYWINWVRQAPGQGLEWMGNIYPGSSSINYNEKFKSRVTITADTSTSTAYMELSSLRSEDTAVYYCARTIYNYGSSGYNYAMDYWGQGTLVTVSSASTKGPSVFPLAPSSKSTSGGTAALGCLVKDYFPEPVTVSWNSGALTSGVHTFPAVLQSSGLYSLSSVVTVPSSSLGTQTYICNVNHKPSNTKVDKRVEPKSCDKTHTCPPCPAPEAAGGPSVFLFPPKPKDTLMISRTPEVTCVVVGVSHEDPEVKFNWYVDGVEVHNAKTKPREEQYNSTYRVVSVLTVLHQDWLNGKEYKCKVSNKALPAPIEKTISKAKGQPREPQVYTLPPSREEMTKNQVSLTCLVKGFYPSDIAVEWESNGQPENNYKTTPPVLDSDGSFFLYSKLTVDKSRWQQGNVFSCSVMHEALHNHYTQKSLSLSPGK light: DIVMTQSPDSLAVSLGERATINCKASENVGNSVSWYQQKPGQPPKLLIYGASNRYTGVPDRFSGSGSGTDFTLTISSLQAEDVAVYYCGQSYSYPYTFGQGTKVEIKRTVAAPSVFIFPPSDEQLKSGTASVVCLLNNFYPREAKVQWKVDNALQSGNSQESVTEQDSKDSTYSLSSTLTLSKADYEKHKVYACEVTHQGLSSPVTKSFNRGEC		-2.6	-7.1	-7.2		~0.0033 ratio (LALA-DG RU / LALA RU)	-2.2	~0.0033
